Substrate in the data set: O=C(O)CO
The experiment in a line: purified protein. The note with it: co-substrate O2; recombinant His-tagged enzyme.

B1: CmGOX (Cyanidioschyzon merolae strain 10D) (protein)
chain: MVEKPAVNPATQPLNLAEYHLFAKARLPAMVYGYYASGADDEQTLRDNEEAFRRLRFRPRVLIDVSRVDITKQVMGIDLSFPLMVAPTAMQRMAHPEGELATARAVARIGTVMGLSSWATTSLEDVAAHVPGLPKFFQLYVYKDRAITERLVRRAERAGFRAIALTVDTPQLGRREADIRNQFQLPPHLSLANFADMKDFAQVKGGAGASGLASYVASLIDASLNWNDIAWLKSITRLPILLKGVVTAEDAQRALQYGADGIWISNHGARQLDGVTATIDCLEEVAQSVRGRIPVFIDSGVRRGTDVVKALALGADAVLIGRPIVWGLAVDGEEGVYRLLSLLKDEFKLAMQLCGCQKVSDIRRDLVVRDAFAPYDVRQMLSVKMQSKL
As for B1, the Km (as a rule, the substrate concentration at which the rate is half of its maximum) came out at 900 ± 200 µM.

Values taken from PMC4867895.
